Experiments:
Nem1-3×Flag = assay: co-IP (GFP IP, anti-Flag western blot, band intensity quantified); settings: ΔSpo7::Nem1-Flag strain; parent: est. 100; read off a plot
[1] = molecular target: Spo7^I52R (co-IP construct) (Botryosphaeria dothidea); assay: co-IP; GFP and Flag fusion constructs transformed in pairs into B. dothidea LW03 (Spo7-Pah1 also in the ΔNem1 mutant); total proteins incubated with anti-GFP agarose; eluates blotted with anti-Flag and anti-GFP antibodies
[2] = molecular target: Spo7^L50R (co-IP construct) (Botryosphaeria dothidea); assay: as above
[3] = molecular target: Spo7^L51R (co-IP construct) (Botryosphaeria dothidea); assay: as above
[4] = molecular target: Spo7^3R (co-IP construct) (Botryosphaeria dothidea); assay: as above

Substance | percent of parent (Nem1-3×Flag) [%] | further results
GFP-Spo7 I52A | 98 | –
GFP-Spo7 L50A | 108 | –
GFP-Spo7 L50A; L51A; I52A | 97 | –
GFP-Spo7 L51A | 100 | –
Nem1-3×Flag (enzyme) | – | percent reduction of the interaction level against wild-type Spo7 (Nem1-Flag band in GFP IP) [1]: 55%; percent reduction of the interaction level against wild-type Spo7 (Nem1-Flag band in GFP IP) [2]: 72%; percent reduction of the interaction level against wild-type Spo7 (Nem1-Flag band in GFP IP) [3]: 68%; percent reduction of the interaction level against wild-type Spo7 (Nem1-Flag band in GFP IP) [4]: 93%
